The text below walks through data of patent publication EP4810521A1, “ANTI-EGFR AND -HER3 BISPECIFIC ANTIBODY-DRUG CONJUGATE AND USE THEREOF” (priority 2023, dated 2025).

By TGI is commonly meant the reduction of tumour growth relative to the control group. Lower therefore signals little slowing of growth. By Kd is commonly meant the free concentration of one partner at which half of the binding sites on the other are occupied at equilibrium, for simple one-to-one binding. Low readings indicate tighter binding, high ones weaker binding. Usually IC50 stands for the concentration that gives 50% inhibition. The low end stands for greater potency in that assay, the high end for weaker potency in that assay.

The test system of assay [1] is NUGC-4 tumor-bearing mouse model. Kind of assay: Anti-tumor effect in NUGC-4 tumor-bearing mouse model. It counts as in vivo, BALB/c-NUDE mice. The settings on record: NUGC-4, 10 mg/kg single dose intraperitoneal injection, day 32. The source says: In the present experiment, the BALB/c NUDE mice inoculated with NUGC-4 cells were used for determining the anti-tumor effect of the EGFR/HER3-ADCs.
The female BALB/c-NUDE mice were purchased from Beijing Vital River Laboratory Animal Technology Co., Ltd, with the grade of SPF, the quality control department is Beijing Vital River Laboratory Animal Technology Co., Ltd, and the certificate number was NO.110011230103807533. The mice were domesticated for 3 days after arrival, and then the study began.
NUGC-4 cells were purchased from NIBIOHN (CAT #: JCRB0834) and routinely subcultured in strict accordance with the instructions for subsequent in vivo experiments. The cells were collected by centrifugation, resuspended in sterile PBS and adjusted to a cell density of 20×10^6 cells/ml. A NUGC-4 tumor-bearing mouse model was established by subcutaneous inoculation of 0.2 ml of cell suspension into the right abdominal region of BALB/c-NUDE mice on day 0.
Tumor volume of each mouse was measured 13 days after tumor cell inoculation, the mice with tumor volumes about 200 mm^3 were selected and grouped on average according to their tumor volume (7 mice per group). […] Administrations were conducted on day 13 after inoculation respectively, and the tumor volume and body weight of mice were monitored twice a week. […] Measurement of tumor volume: the maximum long axis (L) and maximum wide axis (W) of the tumor were measured using a vernier caliper, and the tumor volume was calculated as follows: V=L×W^2/2. Body weight was measured using an electronic balance. Table 3. Experimental design

Another assay concerns the target T1, human EGFR (human, UniProt P00533 25-645, limits assumed).
T1 construct: Coated at 0.25 ug/mL; also called EGFR antigen
Kind of assay: ELISA, EGFR antigen coated on plate, anti-human IgG Fc-HRP detection. For orientation: ELISA stands for enzyme-linked immunosorbent assay.

The target of the next assay is T2, human HER3 (human, UniProt P21860 20-643, limits assumed).
T2 construct: Coated at 0.25 ug/mL; also called HER3 antigen; ErbB3
Kind of assay: ELISA, HER3 antigen coated on plate, anti-human IgG Fc-HRP detection.

The subject of assay [2] is human breast cancer cells MDA-MB-453. Put plainly: In vitro cell killing assay (CTG). In kind it is cell-based. The settings on record: MDA-MB-453, 5 days, Example 13.
Assay [3] deals with human breast cancer cells MCF7. Kind of assay: In vitro cell killing assay (CTG). It counts as cell-based. As for the experimental part:
After 2-3 passages of the resurrected MCF7 cells, the culture medium was poured out firstly, rinsed with 10 mL PBS once, then the cells were digested with 4mL trypsin, the culture medium was terminated before centrifuged at 400xg for 3min, the supernatant was discarded, and the culture medium was further resuspended for counting. The cell density was adjusted to 3E4/mL, 50 µL of which per well was added into a round bottom low adsorption 96-well plate. The antibody to be detected was diluted in a gradient manner, then 50 µL of which per well was added into the corresponding cells, cultured at 37 °C for 5 days, then the 96-well plate was taken out, the plate was balanced to room temperature, 100 µL of CTG detection solution was added into each well, placed at a shaker at 300 rpm for 20 min, 100 µL of which was absorbed and placed into the white bottom 96-well plate, and the luminescence value was detected by using a multifunctional microplate reader.

In assay [1], Patritumab-DXd [reference compound] gave a TGI of 51% and a Tumor volume of 636 mm^3.

B1: Duligo-LC1-NT3 (bispecific antibody, human IgG1, lambda, L234A L235A, V domains shown)
VH: EVQLVESGGGLVQPGGSLRLSCAASGFTLSGDWIHWVRQAPGKGLEWVGEISAAGGYTDYADSVKGRFTISADTSKNTAYLQMNSLRAEDTAVYYCARESRVSFEAAMDYWGQGTLVTVSS
VL: DIQMTQSPSSLSASVGDRVTITCRASQNIATDVAWYQQKPGKAPKLLIYSASFLYSGVPSRFSGSGSGTDFTLTISSLQPEDFATYYCQQSEPEPYTFGQGTKVEIKG
notes: also called Duoligo-LC1-NT3; duoligo-LC1-NT3
In the case of B1, in the assay with human EGFR, the Kd was 0.0352 nM and the “fold decrease in Kd against SIB001-DXd” value was around 2.5 fold. The molecule also displayed a dissociation constant Kd in the assay with human HER3 of 0.0257 nM.

B2: Duligo-DXd (conjugate, chains of the INN, looked up)
VH: B1 VH
VL: DIQMTQSPSSLSASVGDRVTITCRASQNIATDVAWYQQKPGKAPKLLIYSASFLYSGVPSRFSGSGSGTDFTLTISSLQPEDFATYYCQQSEPEPYTFGQGTKVEIK
modifications: DXd payload
As to B2, in assay [2], the killing effect result is listed as “significantly stronger killing effect than SIB001-DXd”. In assay [1], this molecule registered a tumour growth inhibition (TGI) of 75% and a Tumor volume of 414 mm^3. Moreover, the midpoint of inhibition in assay [3] (MCF7, 5 days), the IC50, lay at 0.049 nM. In addition, the “reduction in IC50” value in assay [3] (MCF7, relative to SIB001-DXd) is “approximately 250 fold”.
